Results: US20250154283A1 (published 2025)

T1: biotinylated human VWF cysteine knot (CK) domain construct (human, biotin on the in vitro biotinylation tag (residue not stated); one N-glycan)
T1 construct: Disulfide-linked homodimer; also called biotinylated human VWF CK domain; human VWF CK domain construct
T1 chain: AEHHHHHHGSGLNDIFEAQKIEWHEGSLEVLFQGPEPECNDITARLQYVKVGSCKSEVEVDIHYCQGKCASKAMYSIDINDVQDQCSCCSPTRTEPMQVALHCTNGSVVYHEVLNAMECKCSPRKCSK

T2: biotinylated cynomolgus monkey VWF cysteine knot (CK) domain construct (cynomolgus monkey, biotinylated in vitro (BirA) on the biotinylation tag; one N-glycan)
T2 construct: Expressed in HEK293 EBNA cells; disulfide-linked homodimer; also called cyno VWF CK; cyno VWF CK domain; not shown: in vitro biotinylation tag, HRV-3C site and 3 VWF residues before the CK domain
T2 chain: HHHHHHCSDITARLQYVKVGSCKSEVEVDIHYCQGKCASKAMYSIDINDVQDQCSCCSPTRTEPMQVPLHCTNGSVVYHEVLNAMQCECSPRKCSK

B1: 9301_Lib8_scFv (scFv, not shown: small tags and cut ends)
scFv: EVQLVESGGGLVQPGRSLRLSCAASGFNFHNYDMHWVRQAPGKGLEWVSAISGSGYTADYADSVEGRFTISRDNAKNSLYLQMNSLRAEDTAVYYCAKSHSSGWSSAFDIWGQGTMVTVSSSGGSTITSYNVYYTKLSSSGTDIQMTQSPSSLSASVGDRVTITCRASQTIGYWLAWYQQKPGKAPKLLIYDASVPESGVPSRFSGSGSGTDFTLTISSLQPEDVATYYCQQTLSSPWTFGGGTKVEIK
B2: 9621_Lib8_scFv (scFv, not shown: small tags and cut ends)
scFv: EVQLVESGGGLVQPGRSLRLSCAASGFSFSMYAMHWVRQAPGKGLEWVSAISPSGDATDYADSVEGRFTISRDNAKNSLYLQMNSLRAEDTAVYYCARGMQDYGHYYYYYMDVWGKGTTVTVSSSGGSTITSYNVYYTKLSSSGTDIQMTQSPSSLSASVGDRVTITCRASQDISTSLAWYQQKPGKAPKLLIYGASSLETGVPSRFSGSGSGTDFTLTISSLQPEDVATYYCQQGYIAPRTFGGGTKVEIK
B3: 1374_Lib8_scFv (scFv, not shown: small tags and cut ends)
scFv: EVQLVESGGGLVQPGRSLRLSCAASGVDFSTYAMHWVRQAPGKGLEWVSAISSSGAYTDYADSVEGRFTISRDNAKNSLYLQMNSLRAEDTAVYYCATDRGPFSGYGTQGWFDPWGQGTLVTVSSSGGSTITSYNVYYTKLSSSGTDIQMTQSPSSLSASVGDRVTITCRASQTIRSYLAWYQQKPGKAPKLLIYGASDLQSGVPSRFSGSGSGTDFTLTISSLQPEDVATYYCQQYANFPITFGGGTKVEIK
B4: 15244_Lib8_scFv (scFv)
scFv: EVQLVESGGGLVQPGRSLRLSCAASGFTFADYDMHWVRQAPGKGLEWVSATSSHGVTTDYADSVEGRFTISRDNAKNSLYLQMNSLRAEDTAVYYCARGAWSGIAARQYIDYWGQGTLVTVSSSGGSTITSYNVYYTKLSSSGTDIQMTQSPSSLSASVGDRVTITCRASQTIGYWLAWYQQKPGKAPKLLIYDASVPESGVPSRFSGSGSGTDFTLTISSLQPEDVATYYCQQSYSYPLTFGGGTKVEIK
notes: VH-linker-VL; not shown: C-terminal 3xFLAG and SV5 tags
B5: 69_Lib8_scFv (scFv)
scFv: EVQLVESGGGLVQPGRSLRLSCAASAFTFSNYDMHWVRQAPGKGLEWVSAISGSGDTSDYADSVEGRFTISRDNAKNSLYLQMNSLRAEDTAVYYCVRASWYGTFFDYWGQGTLVTVSSSGGSTITSYNVYYTKLSSSGTDIQMTQSPSSLSASVGDRVTITCRASQSVSGWLAWYQQKPGKAPKLLIYGTSTLQSGVPSRFSGSGSGTDFTLTISSLQPEDVATYYCQQSYSAPYTFGGGTKVEIK
notes: as for B4
B6: 76_Lib4_scFv (scFv)
scFv: QVQLQESGPGLVKPSQTLSLTCTVSGVSISNHYWSWIRQPPGKGLEWIGYIDESGSTDYNPSLKSRVTMSVDTSKNQFSLKVNSVTAADTAVYYCARVSWGYYAMDVWGQGTTVTVSSSGGSTITSYNVYYTKLSSSGTEIVMTQSPATLSLSPGERATLSCRASQGVSGHLAWYQQKPGQAPRLLIYETSKRATGIPARFSGSGSGTDFTLTISSLEPEDFAVYYCQQYNDYPLGFGGGTKVEIK
notes: as for B4
B7: 4675_Lib4_scFv (scFv)
scFv: QVQLQESGPGLVKPSQTLSLTCTVSGFSLTSHPEGVNWIRQPPGKGLEWIGYIAHSGTTDYNPSLKSRVTMSVDTSKNQFSLKVNSVTAADTAVYYCARAYGDSDAFDIWGQGTMVTVSSSGGSTITSYNVYYTKLSSSGTEIVMTQSPATLSLSPGERATLSCRASQSIGRNLAWYQQKPGQAPRLLIYGASKRVTGIPARFSGSGSGTDFTLTISSLEPEDFAVYYCQQYSTWPTFGGGTKVEIK
notes: as for B4
B8: 5662_Lib8_scFv (scFv)
scFv: EVQLVESGGGLVQPGRSLRLSCAASGFNFHNYDMHWVRQAPGKGLEWVSAIDISGQSTDYADSVEGRFTISRDNAKNSLYLQMNSLRAEDTAVYYCAREGWYGGVFDYWGQGTLVTVSSSGGSTITSYNVYYTKLSSSGTDIQMTQSPSSLSASVGDRVTITCRASQDIANWLAWYQQKPGKAPKLLIYGASESGVGVPSRFSGSGSGTDFTLTISSLQPEDVATYYCQQSLTMKTFGGGTKVEIK
notes: as for B4
B9: Lib1_P1_F10_scFv (scFv)
scFv: QVQLVQSGAEVKKPGASVKVSCKVSGYTFSSSGIHWVRQAPGKGLEWMGGIFPNFGTAIYAQKFQGRVTMTEDTSTDTAYMELSSLKSEDTAVYYCARESDFWSGSFTNWGQGTLVTVSSSGGSTITSYNVYYTKLSSSGTDIQMTQSPSSVSASVGDRVTITCRASRSIGNWLAWYQQKPGKAPKLLIYDAFNRASGVPSRFSGSGSGTDFTLTISSLQPEDFANYYCQQSYSTLPRYSFGGGTKVEIK
notes: as for B4
B10: Lib6_P3_A4_scFv (scFv)
scFv: QVQLVQSGAEVKKPGASVKVSCKVSGDTLSNYAIHWVRQAPGKGLEWMGGINPNAGTTIYAQKFQGRVTMTEDTSTDTAYMELSSLKSEDTAVYYCARDSSSWCPVGYYYYYMDVWGKGTTVTVSSSGGSTITSYNVYYTKLSSSGTDIQMTQSPSSVSASVGDRVTITCRASQSIGDFLAWYQQKPGKAPKLLIYDASHLQTGVPSRFSGSGSGTDFTLTISSLQPEDFANYYCQQTSTIPPTFGGGTKVEIK
notes: as for B4
B11: Lib4_P2_D1_scFv (scFv)
scFv: B10 scFv
notes: as for B4
B12: Lib1_P1_A5_scFv (scFv)
scFv: B10 scFv
notes: as for B4
B13: 9312_Lib8_scFv (scFv)
scFv: EVQLVESGGGLVQPGRSLRLSCAASGFSLSTYDMHWVRQAPGKGLEWVSAISSSGDTRDYADSVEGRFTISRDNAKNSLYLQMNSLRAEDTAVYYCARAFWGGDAFDIWGQGTMVTVSSSGGSTITSYNVYYTKLSSSGTDIQMTQSPSSLSASVGDRVTITCRASQTIGYWLAWYQQKPGKAPKLLIYGASTLEGGVPSRFSGSGSGTDFTLTISSLQPEDVATYYCQHSYSAPPTFGGGTKVEIK
notes: as for B4
B14: 4761_Lib8_scFv (scFv)
scFv: EVQLVESGGGLVQPGRSLRLSCAASGFTFSSDTMHWVRQAPGKGLEWVSAISSSGDHTDYADSVEGRFTISRDNAKNSLYLQMNSLRAEDTAVYYCAREGLRGYYFDYWGQGTLVTVSSSGGSTITSYNVYYTKLSSSGTDIQMTQSPSSLSASVGDRVTITCRASQGISGHLAWYQQKPGKAPKLLIYAASALQSGVPSRFSGSGSGTDFTLTISSLQPEDVATYYCQQSHSLPWTFGGGTKVEIK
notes: as for B4
B15: 17561_Lib6_scFv (scFv)
scFv: EVQLVQSGAEVKKPGASVKVSCKASGYTFTDLPISWVRQAPGQGLEWMGWINPYTGDTNYAQKLQGRGTMTTDPSTSTAYMELRSLRSDDTAVYYCARDGVILGYYYYYGMDVWGQGTTVTVSSSGGSTITSYNVYYTKLSSSGTESALTQPASVSGSPGQSITISCTGTDLGSKSVSWYQQHPGKAPKLMIYDNFNRPSGVSNRFSGSKSGNTASLTISGLQAEDEADYYCSSRTVSGTYVFGGGTKLTVL
notes: as for B4
B16: Lib1_P1_A9_scFv (scFv)
scFv: QVQLVQSGAEVKKPGASVKVSCKVSGDTLSSYGIHWVRQAPGKGLEWMGGSIPSFGTAIYAQKFQGRVTMTEDTSTDTAYMELSSLKSEDTAVYYCTSEGPWLPFFSFDYWGQGTLVTVSSSGGSTITSYNVYYTKLSSSGTDIQMTQSPSSVSASVGDRVTITCRASQGISRNLAWYQQKPGKAPKLLIYKASSLASGVPSRFSGSGSGTDFTLTISSLQPEDFANYYCQQSFSTPVTFGGGTKVEIK
notes: as for B4
B17: Lib1_P1_G3_scFv (scFv)
scFv: QVQLVQSGAEVKKPGASVKVSCKVSGYTSRQYIHWVRQAPGKGLEWMGWVTPIFGTTNYAQKFQGRVTMTEDTSTDTAYMELSSLKSEDTAVYYCAREWTGTTAFDIWGQGTLVTVSSSGGSTITSYNVYYTKLSSSGTDIQMTQSPSSVSASVGDRVTITCRASQDIGHYLAWYQQKPGKAPKLLIYAASNRASGVPSRFSGSGSGTDFTLTISSLQPEDFANYYCQQGYSAPYGFGGGTKVEIK
notes: as for B4
B18: 1675_Lib1_scFv (scFv)
scFv: QVQLVQSGAEVKKPGASVKVSCKVSGVTLTSSAISWVRQAPGKGLEWMGGITPIFGTPIYAQKFQGRVTMTEDTSTDTAYMELSSLKSEDTAVYYCATDYGYPFWAFDIWGQGTMVTVSSSGGSTITSYNVYYTKLSSSGTDIQMTQSPSSVSASVGDRVTITCRASQGIYSALAWYQQKPGKAPKLLIYESSKRPSGVPSRFSGSGSGTDFTLTISSLQPEDFANYYCEQYASSPPTFGGGTKVEIK
notes: as for B4

Assays:
[1] = biological target: T1, biotinylated human VWF cysteine knot …; assay: SPR, scFv captured on anti-SV5, pH 7.4
Excerpt: (§1) Briefly, a sensor chip was activated and coupled with an anti-SV5 mouse monoclonal antibody using amine coupling. The soluble scFvs in crude yeast supernatants were printed on the anti-SV5 lawn. […] From the measured association (kₒₙ) and dissociation (koff) rate constants, an apparent equilibrium dissociation constant (Kd=koff/kₒₙ) was estimated. Due to the dimeric state of the CK construct and consequent possibility for simultaneous binding of captured scFv to both monomers in the CK dimer, the SPR setup was expected to overestimate the binding affinity.

[2] = biological target: T3, biotinylated human VWF cysteine knot (CK) domain construct (human, UniProt P04275 2724-2813, biotinylated in vitro (BirA) on the biotinylation tag; one N-glycan); assay: SPR, scFv captured via anti-SV5, CK domain injected, pH 5.5, apparent Kd;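 also: scFvs from crude yeast supernatants captured on chip-bound anti-SV5 antibody, Kd computed as koff divided by kon, dimeric CK construct likely makes affinity appear higher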
T3 construct: Expressed in HEK293 EBNA cells; disulfide-linked homodimer; also called human VWF CK; human VWF CK domain; not shown: in vitro biotinylation tag, HRV-3C site and 3 VWF residues before the CK domain

[3] = biological target: T3, biotinylated human VWF cysteine knot …; assay: SPR, scFv captured via anti-SV5, CK domain injected, pH 7.4, apparent Kd;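 also: scFvs from crude yeast supernatants printed on an amine-coupled anti-SV5 lawn, Kd computed as koff over kon, likely overestimating affinity because the CK construct is dimeric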
Excerpt: as §1

[4] = biological target: T2, biotinylated cynomolgus monkey VWF …; assay: as above
Excerpt: as §1

Row | Binder | binding result [1] | Kd [2] [nM] | Kd [3] [nM] | Kd [4] [nM]
1 | B1 | binds | – | – | –
2 | B2 | binds | – | – | –
3 | B3 | binds | – | – | –
4 | B4 | – | 1.05 | 3.05 | 1.91
5 | B5 | – | 0.859 | 3.7 | 1.05
6 | B6 | – | 0.366 | 3.91 | 1.29
7 | B7 | – | 13.6 | 4.26 | 2.42
8 | B8 | – | 0.687 | 4.31 | 1.36
9 | B9 | – | 15.3 | 4.97 | 1.5
10 | B10 | – | 0.52 | 4.97 | 3.46
11 | B11 | – | 0.984 | 5.02 | 0.517
12 | B12 | – | 5.02 | 6.37 | 1.74
13 | B13 | – | 21.6 | 6.56 | 1.8
14 | B14 | – | 1.33 | 7.56 | 2.67
15 | B15 | – | 1.79 | 9.25 | 5.24
16 | B16 | – | 0.018 | 0.051 | 0.205
17 | B17 | – | 0.029 | 0.073 | 0.032
18 | B18 | – | 0.03 | 0.077 | 0.052
